Results on two molecules are retold here after paper PMC7721647, “The Human RNA Helicase DDX21 Presents a Dimerization Interface Necessary for Helicase Activity” (iScience, 2020).

Common to all, as to assay: fluorescence polarization; FP: 50 mM Tris pH 7.5, 50 mM KCl, 5 mM MgCl2, no ATP; Hill-slope fit; temperature not given in the material
The target of one series is T1, DDX21Core-DD (human, UniProt Q9NR30 186-620).
T1 sequence: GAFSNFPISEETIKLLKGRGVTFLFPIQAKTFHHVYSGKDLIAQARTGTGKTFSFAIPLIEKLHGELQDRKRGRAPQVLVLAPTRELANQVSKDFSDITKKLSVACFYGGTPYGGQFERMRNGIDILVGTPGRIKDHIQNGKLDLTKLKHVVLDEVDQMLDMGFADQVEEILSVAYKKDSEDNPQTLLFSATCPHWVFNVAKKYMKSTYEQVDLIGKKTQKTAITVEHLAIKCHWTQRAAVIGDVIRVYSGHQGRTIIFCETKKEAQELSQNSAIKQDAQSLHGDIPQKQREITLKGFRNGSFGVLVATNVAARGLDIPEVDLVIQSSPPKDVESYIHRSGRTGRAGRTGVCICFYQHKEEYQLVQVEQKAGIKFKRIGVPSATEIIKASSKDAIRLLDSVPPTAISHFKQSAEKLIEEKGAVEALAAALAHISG
The conditions noted are these: protein: recombinant, tags: C-terminal His6, uncleavable, chain copies: 2.

A further series concerns the target T2, DDX21Core (human, UniProt Q9NR30 186-564).
T2 sequence: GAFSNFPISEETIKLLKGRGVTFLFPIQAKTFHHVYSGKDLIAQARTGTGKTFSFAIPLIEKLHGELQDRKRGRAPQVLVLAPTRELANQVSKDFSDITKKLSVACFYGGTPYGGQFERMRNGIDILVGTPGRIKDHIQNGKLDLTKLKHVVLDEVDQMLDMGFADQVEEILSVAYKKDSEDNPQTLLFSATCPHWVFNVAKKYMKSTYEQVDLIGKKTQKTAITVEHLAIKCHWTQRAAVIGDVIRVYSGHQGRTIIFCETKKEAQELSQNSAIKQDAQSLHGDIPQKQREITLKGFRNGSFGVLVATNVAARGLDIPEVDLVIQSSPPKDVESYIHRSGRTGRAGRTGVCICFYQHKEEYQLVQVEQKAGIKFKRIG
As to conditions: protein: recombinant.

The target of a further series is T3, DDX21ΔN monomer (human, UniProt Q9NR30 186-783, L611R;A612R;A613R;A614R;L615R;A616R).
T3 sequence: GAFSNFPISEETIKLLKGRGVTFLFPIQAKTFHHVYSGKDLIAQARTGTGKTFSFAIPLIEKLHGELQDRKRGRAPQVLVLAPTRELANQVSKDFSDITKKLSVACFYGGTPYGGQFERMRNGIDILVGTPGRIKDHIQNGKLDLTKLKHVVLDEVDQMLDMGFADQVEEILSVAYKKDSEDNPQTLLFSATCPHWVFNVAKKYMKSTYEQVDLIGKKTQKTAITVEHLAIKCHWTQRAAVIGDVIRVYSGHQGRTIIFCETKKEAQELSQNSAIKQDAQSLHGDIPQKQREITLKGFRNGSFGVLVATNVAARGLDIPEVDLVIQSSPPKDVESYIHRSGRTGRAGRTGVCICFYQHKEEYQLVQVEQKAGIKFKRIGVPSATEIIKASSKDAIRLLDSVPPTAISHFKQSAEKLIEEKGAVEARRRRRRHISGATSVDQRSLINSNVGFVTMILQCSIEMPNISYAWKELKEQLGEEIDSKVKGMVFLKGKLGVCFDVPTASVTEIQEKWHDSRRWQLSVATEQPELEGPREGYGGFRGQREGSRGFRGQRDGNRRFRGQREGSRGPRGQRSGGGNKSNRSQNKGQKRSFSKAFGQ
As to conditions: protein: recombinant.

The next series addresses T4, DDX21Fl monomer (human, UniProt Q9NR30 1-783, L611R;A612R;A613R;A614R;L615R;A616R).
T4 sequence: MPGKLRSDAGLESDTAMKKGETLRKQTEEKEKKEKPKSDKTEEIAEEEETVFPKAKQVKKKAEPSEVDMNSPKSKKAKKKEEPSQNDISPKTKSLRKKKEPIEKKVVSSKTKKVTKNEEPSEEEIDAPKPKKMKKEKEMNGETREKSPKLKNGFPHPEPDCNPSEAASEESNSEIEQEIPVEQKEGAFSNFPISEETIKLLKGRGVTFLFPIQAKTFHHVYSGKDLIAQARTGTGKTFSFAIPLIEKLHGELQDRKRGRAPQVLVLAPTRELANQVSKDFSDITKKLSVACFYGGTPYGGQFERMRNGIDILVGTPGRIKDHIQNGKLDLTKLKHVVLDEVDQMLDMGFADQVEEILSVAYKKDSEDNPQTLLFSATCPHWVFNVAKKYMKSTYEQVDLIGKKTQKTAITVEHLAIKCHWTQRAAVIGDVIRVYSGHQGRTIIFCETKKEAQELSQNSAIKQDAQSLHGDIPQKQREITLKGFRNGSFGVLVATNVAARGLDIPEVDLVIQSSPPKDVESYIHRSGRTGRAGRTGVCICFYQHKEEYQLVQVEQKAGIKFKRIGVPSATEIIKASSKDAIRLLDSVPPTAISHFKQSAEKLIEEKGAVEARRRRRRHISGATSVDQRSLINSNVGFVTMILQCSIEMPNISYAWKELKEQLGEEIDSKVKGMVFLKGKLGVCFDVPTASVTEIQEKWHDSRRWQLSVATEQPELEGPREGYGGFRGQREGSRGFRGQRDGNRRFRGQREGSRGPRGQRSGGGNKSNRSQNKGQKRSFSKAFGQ
The conditions noted are these: protein: recombinant.

The mark [1] stands for this setting: label: 5'-FAM on 15-mer, 3' overhang 15 nt.

A word on the Kd: it is the concentration at which binding is half-saturated.

B1: dsRNA 15/30mer 3' overhang (dsRNA)
RNA 1: GUUUCGGAUCGACGC
RNA 2: GCGUCGAUCCGAAACUAUACUUAAUUUUAA
Consider B1, for which the Kd with DDX21Core-DD (setting [1]) is 143 ± 6.1 nM; with DDX21Core (setting [1]), 353 ± 27.9 nM; with DDX21ΔN monomer (setting [1]), 122 ± 19.3 nM; in the series with DDX21Fl monomer (setting [1]), 13.9 ± 2.5 nM.
Take GUUUCGGAUCGACGC (ssRNA) [15-mer ssRNA]: the dissociation constant (Kd) with DDX21Core-DD (label: 5'-FAM, single strand) came out at 330 ± 19.1 nM; with DDX21Core (label: 5'-FAM, single strand), 1520 ± 112 nM; with DDX21ΔN monomer (label: 5'-FAM, single strand), 24.9 ± 1.7 nM; with DDX21Fl monomer (label: 5'-FAM, single strand), 29.9 ± 2.7 nM.
